The text below walks through data of the nanobody polyreactivity screen of Harvey et al. (2022).

The nature of this data set: yeast display, Sf9 membrane polyspecificity reagent, FACS + sequencing; frameworks hold sequencing errors. The method in brief: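 Synthetic nanobody libraries on Saccharomyces cerevisiae BJ5465 were galactose-induced for 36–48 hours, stained 1 hour at 4 °C with 10% biotinylated, detergent-solubilized Sf9 membrane reagent and enriched on streptavidin microbeads. FACS then separated cells into low and high (top ~1%) gates by anti-HA (expression) and streptavidin (reagent binding) fluorescence. Genes were colony-PCR amplified, MiSeq 2 × 250 sequenced and CDR-length filtered. A clone's polyreactivity label is that of its gate of origin.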
Regarding “QVQLVESGGGLVQAGGSLRLSCAASARTFSAYAMGWYRPAPGKERELVARITSVDSTNYADSVKGRFTISRDNAKNTVYLQMNSLKPEDTAVYYCNATFGYPFVDYDDYWGQGTQVTVSS”, the “polyreactivity (PSR sort gate)” value is recorded as “low polyreactivity”. With “QVQLVESGGGLVQAGGSLRLSCAASGITFVFYAMGWYRQAPGKERELVAAISTGGSTNYADTVKGRFTISRDNAKNTVYFQMNSLKPEDTAVYYCAAQYFISISKYDYWGQGTQVTVSS”, the “polyreactivity (PSR sort gate)” value is on record as “low polyreactivity”.

Consider “QLQLVESGGGLVQAGGSLRLSCAASGYTFRFNAMGWYRQAPGKEREFVAAIDFGGAGTYYADSVKGRFTISRDNAKNTVYLQMNSLKPEDTAVYYCAADGQWYYAPFRGGDYENDYWGQGTQVTVSS”, for which the “polyreactivity (PSR sort gate)” value is reported as “low polyreactivity”. As for “QVQLVESGGGLVQAGGRLRLSCAASGRTFVPYAMGWYRQPPGKERELVAAISYSGDSTYYADSEKGRFTISRDNAKNTVYLQMNSLKPEDTAVYYCAARGGNPFYYWGQGTQVTVSS”, the entry is “low polyreactivity”; as for “QVQLVESGGGLVQAGGSLRLSCAASGFIFASNAMGWYRQAPGKERELVAGITKSGGSTYYADSVKGRFTISRDNAKNTVYLQMNSLKPEDTAVYYCAKVSYARAKSSGFYYWGQGTQVTVSS”, “high polyreactivity”. Regarding “QVQLVESGGGLVQAGGSLRLSCAASGFIFSYYVMGWYRQAPGKERELVAAINESGGRTYYADSVKGRFTISRDNAKNTVYLQMNSLKPEDTAVYYCATIPGYVYYWQYKYDYWGQGTQVTVSS”, the “polyreactivity (PSR sort gate)” value is “low polyreactivity”. Consider “QVQLVESGGGLVQAGGSLSLSCAASGSIFDVNAMGWYRQAPGKERELVAAISDSGGSTYYADSVKGRFTISRDNAKNTVHLQMNSLKAEDTAVYYCNADWSWYNYYDFDYWGQGTQVTVSS”, for which the “polyreactivity (PSR sort gate)” value was “low polyreactivity”. As for “QVQLVESGGGLVQAGGSIRLSCAASGFTFKGNVMGWYRQAPGKERELVAAISRSGGRTYYADSVKGRFTISRDNAKNTVYLQMNSLKPEDTAVYYCAAVVQSSEPVEYDYWGQGTQVTVSS”, the entry is “high polyreactivity”; as for “QVQLVESGGGLVQAGGSLRLSCAASGSTFWYYAMGWYRQAPGKERELVAAITSSGSTYYADSVKGRFTISRDNAKNTVYLQMNSLKPEDTAVYYCAAEQWYGYASYDYWGQVTQVTVSS”, “high polyreactivity”; as for “QVQLVESGGGLVQAGGSLRLSCAASGIFVDNAMGWYRQAPGKERELVAAITSSTDSTYYADSVKGRFAISRDNAKNTVYLQMNSLKPEDTAVDYCAVARPGGFYFLVHYGYGYWGQGTQVTVSS”, “low polyreactivity”. As for “QVQLVESGGGLVHAGGSLRLSCAASGGIFSWNTMGWYRQAPGKERELVAAINWSSGRTYYADSVKGRFTISRDNAKYTVYLQMNSLKPEDTAVYYCAAKYYGSRKYDYWGQGTQVTVSS”, the “polyreactivity (PSR sort gate)” value is on record as “high polyreactivity”.

“QVQLVESGGGLVQAGGSLRLSCAASGITFTDYAMGWYRQAPGKERELVAAITGSGTSTYYADSVKGRFTISRDNAKNTVYLQMNSLKPEDTAVYYCAARTRGTAYNYWGQGTQVTVSS”: the “polyreactivity (PSR sort gate)” value was “high polyreactivity”.

Regarding “HVQLEESGGGLVQAGGSLRLTCAASGSIFYAYAMGWYIPATGKERELVAVISNGGGSTYYADSVKGRFTISRDNSKNSVYLQMNSVKPEDTAVYFCAAVLAESVYYSDYDYWGQGTQVTVSS”, the “polyreactivity (PSR sort gate)” value is reported as “low polyreactivity”. For “QVQLVESGGGLVQAGGSLRLSCAASGSICWIYAMGWYRQAPGKERELVAAINVGGGSTYYADSVKGRFTISRDNAKNTVYLQMNSLKPEDTAVYYCAKGYQSPYKSQGYEYDYWGQGTQVTVSS” the value was “low polyreactivity”; for “QVQLVESGGGLVQAGGSLRLSCAASGSTFSGYAMRWYRQAPGKERELVATITRRGGNTYDADSVKGGFTISRDNAKNTVYLQMNSLKPEDTAVYYCAKEGRVQSPYHYWGQGTQVTVSS”, “low polyreactivity”; for “QVQLVESGGGLVQAGGSLRLSCAASGNTFRRYAMGWYRQAPGKEREFVAAISSSGGRTYYADSVKGRFTISRDNAKNTVYLQMNSLKPEDTAVYYCNAVSYWVRGEMDYWGQGTQVTVSS”, “high polyreactivity”. For “QVQLVESGGGLVQAGGSLRLSCAASGSTFRPYGMGWYRQAPGKERELVAAINSGDSTYYADSVKGRFTISRDNAKNTFYLQMNSLKPEDTAVYYCNADVWWDTWFLDGYDYWGQGTQVTVSS” the value was “high polyreactivity”; for “QVQLVESGGGLVQAGGSLRLSCAAYGRTIPIYAMGWYRQAPGKEREFVAGINWSGGSTSYADSVKGRFTISRDNAKNTVYLQMNSLKPEDTAVYYCDADKYYRYNYWGQGTQVTVSS”, “high polyreactivity”.

For the sequence “QVQLVESGGGLVQAGGSLRLSCAASGSTFYAYTMGWYRQAPGKARELFGTISSSGGRTNYADSVKGRFTISRDNAKNTVYLQMNSLKPEDTAVYYCAARSRVRNLVNGYTGLWYDYWGQGTQVTVSS”, the “polyreactivity (PSR sort gate)” value is “high polyreactivity”. In the case of “QVQLVESGGGFVQAGGSLRLSCAASGFTFGYYTMGWYRQAPGKERELVAAITYRGGRTYYADSVKGRFTISRDNAKNTVYLQLNSLKPEATAVYYGAARLLGKTGRTDSGAEGDYWGQGTQVTVSS”, the “polyreactivity (PSR sort gate)” value is reported as “high polyreactivity”. Take “QVQLVESGGGLVQAGGSLRLSCAASGRIFVFYAMGWYRQAPGKERELVAAITASSTRTYYADSVKGRFTISRDNAKNTFYLQMNSLKPEDTAVYYCAADRYYWGQGTQVTVSS”: the “polyreactivity (PSR sort gate)” value is reported as “low polyreactivity”. For the sequence “QDQHVESGGGLVQAGGSLRLSCAASGRTFGNYAMGWYRQAPGKERELVADITRRGGSTSYADSVKGRFTISRDNAKNTVYLQMNSLKPEDTAVYYCNKAADGSSHYDYWGQGTQVTVSS”, the “polyreactivity (PSR sort gate)” value is “low polyreactivity”. On to “QVQLVESGGGLVQAGGSLRLSCAASGRTFYSYAMGWYRQAPGTEREFVAAINWSGTSTYADSVKGRFTISRDNAKNTVYLQMNSLKPEDTAVYYCAKTYRTLVRYWGQPFGYWGQGTQVTVSS”, for which the “polyreactivity (PSR sort gate)” value is “high polyreactivity”. As for “QVQLVESRWRFVQAGGSLRLSCAASGSIFADYAMGWYRQAPGKERELVAAITFSGGSTYYADSVKGRFTISRDNAKNTVYLQMNSLKPEDTAVYYCASRWRYRYYSWGQGTQVTVSS”, the entry is “high polyreactivity”; as for “QVQLVESRGGIVQAGGSLRLSSAASGSTFAYNDLGWYRQAPGKERQLVADMRSGGNTNYADSVKGRFTISRDNAKNTVYLQMNSLKPEDTAVYYCATDGYRIDVYHPDYRYDYWGLGTQVTVSS”, “low polyreactivity”. For “QVQIVESGGGLFQAGGSLRLSCAASGRIFDPYSMGWYRQAPGKERELVASISWSGGRTYYADSVKGRFTISRDNAKNTVYLQMNSLKPEDTAVYYCARRFYKGTSKTNLFDFWGQVTQVTVSS” the value was “high polyreactivity”. Consider “QVQLVESGGGLVQPGGSLRISCAASASTFFPYAMGWYRQAPGKERELVAAITGSGGSTYYADSVKGRFTISRDNAKNTVYLQMNSLKPEDTAVYYCNAVWEYYGKSDYWGQGTQVTVSS”, for which the “polyreactivity (PSR sort gate)” value was “low polyreactivity”. In the case of “QVQLVESGGGLVQAGGSLRLSCAASGIIFGYYAMGWYRQAPGKERELVAAISRSGGRTYYADSVKGRFTISRDNAKNTVYLQMNSLKPEDTAVYYCATVTNSKRGFDYWGQGTQVTVLS”, the “polyreactivity (PSR sort gate)” value is “high polyreactivity”. For the sequence “QVQLQEIGGSLVQAGGSLRLSGAASGNILVLPPGQVSPGAERELDATITGGSITYYADSVKGRFTISRDNAKNTVYLQMNSLKPEDTAVYYCAAVSLRKSYGYNYWGQGTLVTVSS”, the “polyreactivity (PSR sort gate)” value was “high polyreactivity”. As to “QVQLVESGGGLVQAGGSLRLSCAASGSTFYLNAMGWYRQAPGKEREFVAAIRGGGTSTRYADSVKGRFTISRDNAKNTVYLQMNSLKPEDTAVYFCAAPRVVYRGDYWGQGTQVTVSS”, the “polyreactivity (PSR sort gate)” value is “high polyreactivity”. As for “QVQHEESGGGLVQAGGSLRLSCAASGFTFGTNAMGWSRQAPGKERELVAAISTRGGSTYYADSVKGRFTISRDNAKNTVYLQMNSLKPEDTAVYYCAAYWGRTRYYGYDYYYWGQGTQVTVSS”, the entry is “high polyreactivity”; as for “QVQLVESGGGLVQAGGSLRLSCAASGSTFHFYAMGWYRQAPGKESELVAAITWSGGTTYYADSVKGRFTISRDNAKNTVYFQMNSLKPEDTGVYYCATGQSVIYRYEYWGQGTQVTVSS”, “low polyreactivity”. For “QVQLVESGGGLVQAGGSLRLSCDASGIIFTFYTMGWYRQAPGKERELVAAITWSGGSTNYADSVKGRFTISRDNAKNTVYLQMNSLKPEDTAVYYCAAQGYPQSPPWEDYWGQGTQVTVSS” the value was “low polyreactivity”; for “QVQLVESGGGLVQAGGSLRLSCAASGSIFGFNAMGWYRQAPGKERELVAAINNGGSTNYADSVKGRFTISRDNAKNTVYLQMNSLKPEDTAVYYCSARLNYIRRGYWGQGTQVTVSS”, “high polyreactivity”. Take “QVQLVESGGGLVQAGGSLRLSCAASGSTFGVSAMGWSRQAPGKERELVAAISGRGGRTYYADSVKGRFTISRDNAKNTVYLLMNSLKPEDTAVYYFAVVGSAYQSRYDYWGQGTQVTVSS”: the “polyreactivity (PSR sort gate)” value is “high polyreactivity”. For “QVQLVESGGGLVQAGGSLRLSCAASGFIFVGYAMGWYRQAPGKERELVAAITDGGRTKYADSVKGRFTISRDNAKNTVYLQMNSLKPEDTAVYYCAADDLHTYYTLDYWGQGTQVTVSS” the value was “high polyreactivity”; for “QVQLVESGGGLVQAGGSLRLSCAASGSIFRLNAMGWYRQAPGKERELVAAIDGSDGSTYYADSVKGRFTISRDNAKNTVYLQMNSLKPEDTAVYYCAAERGYPTDYYSGSDDYWGQGTQVTVSS”, “low polyreactivity”; for “QVQLVESGGGLVQAGGSLRLSCAASGSTFKIYAMGWYRQAPGKERELVAAITRGGSTNYADSVKGRFTISRDNAKNTVYLQMNSLKPEDTAVYYCAASYWYRRYGTYTYDYWGQGTQVTVSS”, “high polyreactivity”. For the sequence “QVQLVETGGGLVQAGGSLRLSCADSGSTFPGNGMVWSRQAPGKERELVAGISSGGRTYYADSVKGRVTISRDNAKNTVYLQLNRLKPEDTAVYYCATEGDYFAKYDRMDYWGQGTQVTVSS”, the “polyreactivity (PSR sort gate)” value is given as “low polyreactivity”. As for “QVQLVESGGGLVQAGGSLRLSCAASGLSSLRMLWDGRDRRLGKKGSWLPLITSGGDSTNYADSVKGRFTISRDNAKNTVYFQMNSLKPEDTAVYYCAADLDYPYGYLGQGTQVTVSS”, the entry is “low polyreactivity”.

Consider “QVQLVESAGGIVQAGGSLRLSFAASGSTFTRYAMGWYRPAPGKERELVAAIDGGGGSTSYADSVKGRFTISRDHAKNTVYLQMNSLKPEDTAVYYCAAPLDTSSRIFDYWGHGTQVTVSS”, for which the “polyreactivity (PSR sort gate)” value was “low polyreactivity”.
